Here are results for two substances from PMC5692591.

Test [1] addresses FpvAI (ferripyoverdine transporter of P. aeruginosa PAO1), recombinant (P. aeruginosa PAO1).
For test [2] the target is unchanged. Nature of the test: ITC. A general note: Isothermal titration calorimetry measures the heat released or taken up as one component is titrated into another.
Test [3] has as its target TonB1 periplasmic domain (residues 109–342) (P. aeruginosa). Nature of the test: ITC.

Take “Δ1–45 pyoS2^NTD (from UniProt Q06584 46-209) (domain or fragment)”: in test [1], the fold decrease of binding against pyoS2^NTD was 1000 fold.
Usually Kd stands for the equilibrium constant for the complex coming apart. Usually stoichiometry N stands for a count of units in the complex or per binding partner. Regarding “N-terminal domain of pyocin S2 (pyoS2^NTD), residues 1–209 (from UniProt Q06584 1-209) (domain or fragment)”, in test [2], the Kd turned out to be 0.24 nM, the dH is -15.8 kcal/mol and the stoichiometry N came to 0.78 sites. The substance further registered a Kd in test [3] of 1000 nM.
